± gives the uncertainty stated by the source.
B1: Transcription intermediary factor 1-beta, residues 620 to 671; numbered along this chain, Q13263 (parent)
chain: TLDDSATICRVCQKPGDLVMCNQCEFCFHLDCHLPALQDVPGEEWSCSLCHV

Variants of: B1
Assay: abundance fitness (aPCA) (normalised: wild type 0, dead -1); higher = more abundant; growth selection in yeast, the domain comes from the species named
Conditions: Homo sapiens
Work on D17M yielded an abundance fitness of -0.364 ± 0.21. With D17A the abundance fitness was -0.639 ± 0.19. In the case of D17T, the abundance fitness is reported as -0.074 ± 0.12. D17Y showed an abundance fitness of -0.512 ± 0.17. D17I showed an abundance fitness of -0.409 ± 0.24. Work on D17K yielded an abundance fitness of -0.018 ± 0.16. D17F showed an abundance fitness of -0.099 ± 0.21. D17L gave an abundance fitness of -0.301 ± 0.12. D17S showed an abundance fitness of -0.004 ± 0.098. D17H showed an abundance fitness of 0.01 ± 0.15. In the case of D17R, the abundance fitness is reported as -0.062 ± 0.098. In the case of D17P, the abundance fitness is reported as -0.604 ± 0.15. D17N gave an abundance fitness of -0.256 ± 0.2. In the case of D17E, the abundance fitness is reported as -0.119 ± 0.16. D17V gave an abundance fitness of -0.355 ± 0.11. In the case of D17Q, the abundance fitness is reported as -0.186 ± 0.2. In the case of D17W, the abundance fitness is reported as -0.522 ± 0.15. In the case of D17C, the abundance fitness is reported as -0.151 ± 0.16. D17G gave an abundance fitness of 0.076 ± 0.1. Work on E25K yielded an abundance fitness of -0.228 ± 0.19. In the case of E25H, the abundance fitness is reported as -0.578 ± 0.4. E25S gave an abundance fitness of 0.059 ± 0.11. Variant E25W has an abundance fitness of -0.322 ± 0.13. For E25V, the abundance fitness was -0.493 ± 0.11. Work on E25F yielded an abundance fitness of -0.113 ± 0.18. E25A gave an abundance fitness of -0.227 ± 0.12. Work on E25I yielded an abundance fitness of -0.298 ± 0.21. Work on E25N yielded an abundance fitness of -0.822 ± 0.39. In the case of E25T, the abundance fitness is reported as -0.024 ± 0.12. With E25D the abundance fitness was -0.3 ± 0.26. E25G showed an abundance fitness of -0.27 ± 0.1. E25R gave an abundance fitness of -0.136 ± 0.12. E25Y gave an abundance fitness of -0.061 ± 0.19. E25Q showed an abundance fitness of -0.077 ± 0.19. Work on E25L yielded an abundance fitness of -0.134 ± 0.1. In the case of E25P, the abundance fitness is reported as -0.66 ± 0.24. E25C gave an abundance fitness of -0.052 ± 0.16. For E25M, the abundance fitness was -0.286 ± 0.28. P15N showed an abundance fitness of -0.396 ± 0.25. P15G showed an abundance fitness of -0.126 ± 0.09. In the case of P15S, the abundance fitness is reported as -0.022 ± 0.1. Work on P15W yielded an abundance fitness of -0.771 ± 0.18. Variant P15Y has an abundance fitness of -0.255 ± 0.2. With P15E the abundance fitness was -0.01 ± 0.14. P15M gave an abundance fitness of -0.168 ± 0.24. Variant P15T has an abundance fitness of -0.546 ± 0.17. P15C gave an abundance fitness of -0.646 ± 0.15. P15F gave an abundance fitness of -0.787 ± 0.27. P15L gave an abundance fitness of -0.684 ± 0.15. P15K gave an abundance fitness of -0.193 ± 0.2. P15H showed an abundance fitness of -0.132 ± 0.22. With P15Q the abundance fitness was -0.559 ± 0.21. With P15A the abundance fitness was 0.005 ± 0.11. Variant P15I has an abundance fitness of -0.359 ± 0.32. Variant P15D has an abundance fitness of -0.233 ± 0.2. N22R gave an abundance fitness of -0.11 ± 0.12. N22F gave an abundance fitness of -0.281 ± 0.23. With N22E the abundance fitness was 0.094 ± 0.15. N22A gave an abundance fitness of -0.232 ± 0.11. With N22S the abundance fitness was -0.066 ± 0.12. Work on N22T yielded an abundance fitness of -0.182 ± 0.13. For N22Q, the abundance fitness was -0.116 ± 0.18. N22G showed an abundance fitness of -0.27 ± 0.098. For N22I, the abundance fitness was -0.316 ± 0.21. In the case of N22H, the abundance fitness is reported as -0.449 ± 0.23. N22L showed an abundance fitness of -0.561 ± 0.11. Variant N22M has an abundance fitness of -0.337 ± 0.16. For N22P, the abundance fitness was -0.382 ± 0.19. In the case of N22C, the abundance fitness is reported as -0.092 ± 0.22. N22K showed an abundance fitness of 0.05 ± 0.17. C21E gave an abundance fitness of -0.434 ± 0.16. With C21D the abundance fitness was -0.575 ± 0.18. In the case of C21H, the abundance fitness is reported as -0.445 ± 0.25. In the case of C21T, the abundance fitness is reported as -0.95 ± 0.27. With C21N the abundance fitness was -0.565 ± 0.21. Variant C21S has an abundance fitness of -0.968 ± 0.15. C21W gave an abundance fitness of -1.14 ± 0.26. Work on C21Q yielded an abundance fitness of -0.8 ± 0.35. In the case of C21A, the abundance fitness is reported as -0.995 ± 0.16. C21M gave an abundance fitness of -1.24 ± 0.35. C21V showed an abundance fitness of -0.826 ± 0.11. C21L gave an abundance fitness of -0.837 ± 0.13. C21G showed an abundance fitness of -0.871 ± 0.11. Variant C21P has an abundance fitness of -0.697 ± 0.36. C21I showed an abundance fitness of -0.807 ± 0.29. With C21F the abundance fitness was -0.962 ± 0.26. T7G gave an abundance fitness of -0.207 ± 0.08. T7E gave an abundance fitness of 0.004 ± 0.13. Work on T7F yielded an abundance fitness of -0.383 ± 0.12. With T7M the abundance fitness was -0.143 ± 0.15. With T7I the abundance fitness was -0.013 ± 0.13. In the case of T7Q, the abundance fitness is reported as -0.118 ± 0.27. T7K showed an abundance fitness of -0.022 ± 0.13. T7N showed an abundance fitness of -0.176 ± 0.15. T7L showed an abundance fitness of -0.41 ± 0.12. For T7R, the abundance fitness was 0.077 ± 0.11. Variant T7H has an abundance fitness of -0.138 ± 0.14. Variant T7S has an abundance fitness of -0.079 ± 0.09. With T7Y the abundance fitness was 0.007 ± 0.15. T7W gave an abundance fitness of -0.429 ± 0.15. With T7A the abundance fitness was -0.123 ± 0.098. For T7C, the abundance fitness was -0.451 ± 0.16. T7V showed an abundance fitness of -0.066 ± 0.088. T7P showed an abundance fitness of -0.204 ± 0.19. T7D gave an abundance fitness of 0.024 ± 0.12. For F26D, the abundance fitness was -0.034 ± 0.22. For F26E, the abundance fitness was 0.04 ± 0.15. Variant F26C has an abundance fitness of -0.029 ± 0.24. F26A gave an abundance fitness of -0.063 ± 0.11. Work on V19P yielded an abundance fitness of -0.943 ± 0.33. V19I showed an abundance fitness of 0.008 ± 0.23. Variant V19M has an abundance fitness of -0.157 ± 0.15. With V19L the abundance fitness was -0.171 ± 0.1. With V19T the abundance fitness was -0.314 ± 0.16. Work on V19N yielded an abundance fitness of -0.556 ± 0.34. V19D showed an abundance fitness of 0.025 ± 0.33. For V19C, the abundance fitness was -0.536 ± 0.21. In the case of V19Q, the abundance fitness is reported as -0.402 ± 0.27. V19S showed an abundance fitness of -0.613 ± 0.16. For V19H, the abundance fitness was 0.116 ± 0.3. Variant V19R has an abundance fitness of -0.364 ± 0.11. Variant V19G has an abundance fitness of -0.852 ± 0.14. Variant V19F has an abundance fitness of -0.311 ± 0.15. Work on V19W yielded an abundance fitness of 0 ± 0.12. V19E showed an abundance fitness of -0.519 ± 0.17. V19A gave an abundance fitness of -0.58 ± 0.14. Variant D4R has an abundance fitness of 0.015 ± 0.072. D4Q gave an abundance fitness of -0.294 ± 0.17. Variant D4S has an abundance fitness of 0.016 ± 0.086. With D4V the abundance fitness was 0.148 ± 0.093. For D4P, the abundance fitness was -0.155 ± 0.12. D4N showed an abundance fitness of 0.074 ± 0.11. For C12Y, the abundance fitness was -1 ± 0.26. With C24M the abundance fitness was -0.918 ± 0.25. For C24T, the abundance fitness was -0.842 ± 0.18. For C24V, the abundance fitness was -1.08 ± 0.17. Work on C24G yielded an abundance fitness of -0.541 ± 0.12. For C24F, the abundance fitness was -0.965 ± 0.22. Work on C24N yielded an abundance fitness of -1.19 ± 0.4. C24I gave an abundance fitness of -1.07 ± 0.36. In the case of C24W, the abundance fitness is reported as -1.04 ± 0.19. Work on C24D yielded an abundance fitness of -0.769 ± 0.27. For C24K, the abundance fitness was -0.894 ± 0.27. For C24H, the abundance fitness was -1.01 ± 0.24. C24R gave an abundance fitness of -0.685 ± 0.099. With C24A the abundance fitness was -0.666 ± 0.14. In the case of C24S, the abundance fitness is reported as -1 ± 0.17. For C24P, the abundance fitness was -0.928 ± 0.28. In the case of Q13L, the abundance fitness is reported as -0.084 ± 0.079. Work on Q13E yielded an abundance fitness of 0.092 ± 0.093. In the case of Q13Y, the abundance fitness is reported as -0.111 ± 0.12. With Q13I the abundance fitness was -0.265 ± 0.16. Q13D showed an abundance fitness of 0.144 ± 0.12. Variant Q13N has an abundance fitness of 0.128 ± 0.17. In the case of Q13P, the abundance fitness is reported as -0.82 ± 0.16. For Q13F, the abundance fitness was 0.042 ± 0.12. In the case of Q13K, the abundance fitness is reported as -0.032 ± 0.13. Q13T gave an abundance fitness of -0.085 ± 0.11. For Q13S, the abundance fitness was 0.036 ± 0.088. In the case of Q13V, the abundance fitness is reported as -0.518 ± 0.079. Work on Q13G yielded an abundance fitness of -0.016 ± 0.075. Q13C gave an abundance fitness of 0.091 ± 0.13. Work on Q13W yielded an abundance fitness of -0.063 ± 0.1. Q13A showed an abundance fitness of -0.322 ± 0.082. Variant Q13R has an abundance fitness of -0.025 ± 0.079. Q13M showed an abundance fitness of -0.002 ± 0.1. Q13H showed an abundance fitness of 0.062 ± 0.15.
